According to paper PMC12807514:
Read-outs that look alike come from different tables or passages of the source. Blank lines part the entries; values can stand above or below the substance they belong to.

What was measured:
CCR7 (Homo sapiens) [1] = biological target: CCR7 (Homo sapiens) (UniProt P32248); conditions: cited from earlier work
CCR7 (Homo sapiens) [2] = biological target: CCR7 (Homo sapiens) (UniProt P32248); conditions: cited from earlier work; remark: listed apart in the source
[3] = biological target: C-C Chemokine Receptor 7 (CCR7), endogenous in CEM cells (human (endogenous in CEM)) (UniProt P32248)

Chain of CCL19 (Q99731 22-98): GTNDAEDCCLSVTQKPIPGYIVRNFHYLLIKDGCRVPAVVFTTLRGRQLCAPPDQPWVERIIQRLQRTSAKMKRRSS

Substance: CCL19 (from UniProt Q99731)
Kd (CCR7 (Homo sapiens) [1]): 0.1 nM

Substance: CCL21 (from UniProt O00585)
Kd (CCR7 (Homo sapiens) [2]): 0.1 nM

CCR7 internalization (CCR7 left on the surface, flow cytometry) in CEM T cells with 200 nM CCL19, measured at 2 min intervals over 10 min [3]: 80%
Substance: human C-C Chemokine Ligand 19 (hCCL19) (from UniProt Q99731 22-98)
